What was measured:
[1] = target: hMIGA2_(long)-6xhis (human) (UniProt Q7L4E1); assay: native MS
SEC = target: the molecule itself; assay: SEC

Row | stoichiometry N [1] | Molecule | stoichiometry N (SEC)
1 | 2 | hMIGA2_(long)-6xhis (from UniProt Q7L4E1 170-593) (domain or fragment) | –
2 | – | CeMIGA2_(long), C. elegans MIGA (106-496) (domain or fragment, UniProt Q21096 106-496, looked up) SMNPIEADITSGQELCTELRKTIEKVHHNLEMVKNRSSKDMERSIKIEGILKGLKQVEDEIVLLVPQMEDFRDDNMEFYSVSGGSGYAGSVRTGRSRTLSVLSDDSFRSAVEEFACDIDDIDFVSDAANLDKNELRFLDEGMQAALNGEVKYRKSRMEFCKCDSETDFAAKLYCVRQALTNALKDEHKRVWLAKCGRTLLADFIRHTKQDPVKFFNAYDEMLEYVSNDRNEEQLRQDVEGRGVCETGFYDVAIDFIILDAFEDLKSPPSAVYSVTKNYFMSMSMKYSTLNTIIWSIIKSKRQRLKNPDGFIAKFYNISETVMPAITLGFLGTDERLGELCQYFKEQVVQFVLDVFNTQKVCYRSLEEMSEDVWIVMRNRLEAVQTRMSNEL | 2
